Test results: US20260274955A1 (JANUX THERAPEUTICS, published 2026)
Read-outs that look alike come from different tables or passages of the source. No end group written: not given here.

Assays:
[1] = biological target: T1, anti-CD28 Fab (SEQ ID NOs: 202, 203); assay: phage binding ELISA on captured Fab, competitor CD28 antigen
T1 construct: biotinylated and captured on neutravidin coated plates in the phage ELISA

[2] = biological target: T1, anti-CD28 Fab (SEQ ID NOs: 202, 203); assay: phage binding ELISA on captured biotinylated Fab;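 note: clonal phage supernatants added to wells preincubated with CD28 antigen or blocking buffer only, bound phage detected by ELISA with horseradish-conjugated anti-M13 antibody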
Ab-1 [3] = biological target: T2, Ab-1; assay: competition ELISA, peptide titrated vs 1 nM Ab-1 binding plate-bound CD28
T2 construct: also called anti-CD28 scFv harbored in Ab-1

Ab-1 [4] = biological target: T2, Ab-1; assay: BLI (Octet), 200 nM peptide, 100 nM Ab-1;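 for t1/2: association and dissociation phases tracked in real time, with kinetics fitted to a 1:1 interaction model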
Ab-1 [5] = biological target: T2, Ab-1; assay: binding ELISA, peptide captured, Ab-1 titrated
Ab-1 [6] = biological target: T2, Ab-1; assay: BLI (Octet), 200 nM peptide, 100 nM Ab-1; remark: listed apart in the source;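 for t1/2: association and dissociation phases tracked in real time, with kinetics fitted to a 1:1 interaction model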
Ab-1 [7] = biological target: T2, Ab-1; assay: competition ELISA, peptide titrated vs 1 nM Ab-1 binding plate-bound CD28; remark: listed apart in the source
Ab-1 [8] = biological target: T2, Ab-1; assay: BLI (Octet), peptide on sensor, Ab-1 titrated, 1:1 model
Ab-1 [9] = biological target: T2, Ab-1; assay: binding ELISA, peptide captured, Ab-1 titrated; remark: listed apart in the source
anti-CD28 Fab = assay: competition ELISA, alanine scan of Peptide-39, Fab binding plate-bound CD28

## LCNAGATYSWPTCL [Phage-940]
[1]
  Anti-CD28 Fab signal in the presence of CD28: 0.06
[2]
  Anti-CD28 Fab (SEQ ID NOs: 202, 203) signal: 2.14

## LDWCPRHLWALCFN (cysteine pairing not given here; also: biotinylated, site not given here) [Peptide-22]
Ab-1 [3]
  IC50: 0.47 µM
Ab-1 [4]
  Octet signal (200 nM peptide): 0.697
Ab-1 [5]
  EC50: 0.0082 µM

## LCAAGAHYPWPQCL [Phage-937]
[1]
  Anti-CD28 Fab signal in the presence of CD28: 0.07
[2]
  Anti-CD28 Fab (SEQ ID NOs: 202, 203) signal: 2.15

## RDWCPRDLWVHCFA (cysteine pairing not given here; also: biotinylated, site not given here) [Peptide-3]
Ab-1 [6]
  Octet signal: 1.22
  t1/2: 4.9 min
Ab-1 [7]
  IC50: 0.17 µM
Ab-1 [8]
  Kd: 0.0203 µM
  t1/2: 6.2 min
Ab-1 [9]
  EC50: 0.0146 µM

## TDWCPRDLWVHCFA (cysteine pairing not given here; also: biotinylated, site not given here) [Peptide-16]
Ab-1 [6]
  Octet signal: 1.34
  t1/2: 4.2 min
Ab-1 [7]
  IC50: 0.59 µM
Ab-1 [8]
  Kd: 0.0255 µM
  t1/2: 4.7 min
Ab-1 [9]
  EC50: 0.024 µM

## QDWCPRDLWVHCFA (cysteine pairing not given here; also: biotinylated, site not given here) [Peptide-6]
Ab-1 [6]
  Octet signal: 1.12
  t1/2: 3.6 min
Ab-1 [7]
  IC50: 0.33 µM
Ab-1 [8]
  Kd: 0.0246 µM
  t1/2: 4.2 min
Ab-1 [9]
  EC50: 0.0257 µM

## KDWCPRDLWVHCFA (cysteine pairing not given here; also: biotinylated, site not given here) [Peptide-12]
Ab-1 [6]
  Octet signal: 1.13
  t1/2: 4 min
Ab-1 [7]
  IC50: 0.19 µM
Ab-1 [8]
  Kd: 0.0261 µM
  t1/2: 4.5 min
Ab-1 [9]
  EC50: 0.0197 µM

## EDWCPRDLWVHCFA (cysteine pairing not given here; also: biotinylated, site not given here) [Peptide-7]
Ab-1 [6]
  Octet signal: 1.02
  t1/2: 3 min
Ab-1 [7]
  IC50: 0.3 µM
Ab-1 [8]
  Kd: 0.0232 µM
  t1/2: 3.1 min
Ab-1 [9]
  EC50: 0.0328 µM

## TCAAGAHWPWPTCF [Phage-938]
[1]
  Anti-CD28 Fab signal in the presence of CD28: 0.07
[2]
  Anti-CD28 Fab (SEQ ID NOs: 202, 203) signal: 2.15

## YCAGHAWQYINKCL (cysteine pairing not given here; also: biotinylated, site not given here, synthetic peptide) [Peptide-39]
anti-CD28 Fab
  IC50: 12600 µM

B1: Peptide-62 (peptide)
peptide: YCAGHAAQYINKCL
notes: alanine scanning peptide of Peptide-39 (W7A)
anti-CD28 Fab
  IC50: 3160 µM

B2: Peptide-65 (peptide)
peptide: YCAGHAWQYANKCL
notes: alanine scanning peptide of Peptide-39 (I10A)
anti-CD28 Fab
  IC50: 102000 µM

B3: Peptide-68 (peptide)
peptide: YCAGHAWQYINKCA
notes: alanine scanning peptide of Peptide-39 (L14A)
anti-CD28 Fab
  IC50: 98600 µM

B4: Peptide-63 (peptide)
peptide: YCAGHAWAYINKCL
notes: alanine scanning peptide of Peptide-39 (Q8A)
anti-CD28 Fab
  IC50: 12300 µM

B5: Peptide-66 (peptide)
peptide: YCAGHAWQYIAKCL
notes: alanine scanning peptide of Peptide-39 (N11A)
anti-CD28 Fab
  IC50: 5490 µM

## NCSAGAQWPWPICL [Phage-936]
[1]
  Anti-CD28 Fab signal in the presence of CD28: 0.08
[2]
  Anti-CD28 Fab (SEQ ID NOs: 202, 203) signal: 2.15
